Values quoted from earlier work in paper PMC3433420.
Read-outs that look alike come from different tables or passages of the source.

Experiments:
Conditions in all cases: cited from earlier work
BLK (Homo sapiens) = BLK (Homo sapiens) (UniProt P51451)
PLCG2-NC (Homo sapiens) = PLCG2-NC (Homo sapiens) (UniProt P16885)
SYK-NC (Homo sapiens) [1] = target: SYK-NC (Homo sapiens) (UniProt P43405)
GRB7 (Homo sapiens) = GRB7 (Homo sapiens) (UniProt Q14451)
PIK3R1-N (Homo sapiens) = PIK3R1-N (Homo sapiens) (UniProt P27986)
SLA (Homo sapiens) = SLA (Homo sapiens) (UniProt Q13239)
SH2B2 (Homo sapiens) = SH2B2 (Homo sapiens) (UniProt O14492)
ABL2 (Homo sapiens) [2] = target: ABL2 (Homo sapiens) (UniProt P42684)
CRK (Homo sapiens) = CRK (Homo sapiens) (UniProt P46108)
PLCG1-NC (Homo sapiens) = PLCG1-NC (Homo sapiens) (UniProt P19174)
PIK3R3-NC (Homo sapiens) [3] = target: PIK3R3-NC (Homo sapiens) (UniProt Q92569)
VAV3 (Homo sapiens) = VAV3 (Homo sapiens) (UniProt Q9UKW4)
RASA1-N (Homo sapiens) [4] = target: RASA1-N (Homo sapiens) (UniProt P20936)
TENC1 (Homo sapiens) = TENC1 (Homo sapiens) (UniProt Q63HR2)
VAV1 (Homo sapiens) = VAV1 (Homo sapiens) (UniProt P15498)
NCK1 (Homo sapiens) = NCK1 (Homo sapiens) (UniProt P16333)
SLA2 (Homo sapiens) = SLA2 (Homo sapiens) (UniProt Q9H6Q3)
PIK3R1-NC (Homo sapiens) = PIK3R1-NC (Homo sapiens) (UniProt P27986)
ABL1 (Homo sapiens) = ABL1 (Homo sapiens) (UniProt P00519)
SHC3 (Homo sapiens) = SHC3 (Homo sapiens) (UniProt Q92529)
PIK3R2-C (Homo sapiens) = PIK3R2-C (Homo sapiens) (UniProt O00459)
NCK2 (Homo sapiens) [5] = target: NCK2 (Homo sapiens) (UniProt O43639)
PIK3R3-N (Homo sapiens) = PIK3R3-N (Homo sapiens) (UniProt Q92569)
ZAP70-C (Homo sapiens) = ZAP70-C (Homo sapiens) (UniProt P43403)
TNS3 (Homo sapiens) = TNS3 (Homo sapiens) (UniProt Q68CZ2)
SHC1 (Homo sapiens) = SHC1 (Homo sapiens) (UniProt P29353)
SRC (Homo sapiens) = SRC (Homo sapiens) (UniProt P12931)
PIK3R2-NC (Homo sapiens) = PIK3R2-NC (Homo sapiens) (UniProt O00459)
BCAR3 (Homo sapiens) [6] = target: BCAR3 (Homo sapiens) (UniProt O75815)
VAV2 (Homo sapiens) = VAV2 (Homo sapiens) (UniProt P52735)
CRKL (Homo sapiens) [7] = target: CRKL (Homo sapiens) (UniProt P46109)
TXK (Homo sapiens) = TXK (Homo sapiens) (UniProt P42681)
HCK (Homo sapiens) = HCK (Homo sapiens) (UniProt P08631)
PIK3R2-N (Homo sapiens) = PIK3R2-N (Homo sapiens) (UniProt O00459)
PIK3R3-C (Homo sapiens) = PIK3R3-C (Homo sapiens) (UniProt Q92569)
PTK6 (Homo sapiens) = PTK6 (Homo sapiens) (UniProt Q13882)
PLCG1-C (Homo sapiens) = PLCG1-C (Homo sapiens) (UniProt P19174)
SYK-NC (Homo sapiens) [8] = target: SYK-NC (Homo sapiens) (UniProt P43405); remark: listed apart in the source
ABL2 (Homo sapiens) [9] = target: ABL2 (Homo sapiens) (UniProt P42684); remark: listed apart in the source
PIK3R3-NC (Homo sapiens) [10] = target: PIK3R3-NC (Homo sapiens) (UniProt Q92569); remark: listed apart in the source
RASA1-N (Homo sapiens) [11] = target: RASA1-N (Homo sapiens) (UniProt P20936); remark: listed apart in the source
NCK2 (Homo sapiens) [12] = target: NCK2 (Homo sapiens) (UniProt O43639); remark: listed apart in the source
BCAR3 (Homo sapiens) [13] = target: BCAR3 (Homo sapiens) (UniProt O75815); remark: listed apart in the source
SHC1-PTB (Homo sapiens) = SHC1-PTB (Homo sapiens) (UniProt P29353)
CRKL (Homo sapiens) [14] = target: CRKL (Homo sapiens) (UniProt P46109); remark: listed apart in the source

Chain of RASA1-N (Homo sapiens) (P20936 176-446): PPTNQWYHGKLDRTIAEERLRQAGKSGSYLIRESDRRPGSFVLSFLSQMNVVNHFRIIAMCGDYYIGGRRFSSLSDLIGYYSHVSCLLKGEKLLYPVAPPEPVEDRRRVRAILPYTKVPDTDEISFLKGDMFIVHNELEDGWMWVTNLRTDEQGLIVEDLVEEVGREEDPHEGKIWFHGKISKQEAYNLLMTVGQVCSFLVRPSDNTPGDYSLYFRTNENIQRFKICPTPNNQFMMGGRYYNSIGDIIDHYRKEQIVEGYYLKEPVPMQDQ
Chain of ABL2 (Homo sapiens) (P42684 168-268): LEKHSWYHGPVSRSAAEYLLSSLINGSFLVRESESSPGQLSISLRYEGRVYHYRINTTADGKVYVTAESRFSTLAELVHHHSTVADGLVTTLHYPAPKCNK
Chain of NCK2 (Homo sapiens) (O43639 280-380): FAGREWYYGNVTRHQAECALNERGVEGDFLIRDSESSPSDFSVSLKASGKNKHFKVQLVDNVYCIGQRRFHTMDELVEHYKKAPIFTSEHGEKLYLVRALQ
Chain of BCAR3 (Homo sapiens) (O75815 149-258): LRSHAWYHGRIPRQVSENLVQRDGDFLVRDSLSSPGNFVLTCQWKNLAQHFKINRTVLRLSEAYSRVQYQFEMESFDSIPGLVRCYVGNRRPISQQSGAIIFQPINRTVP
Chain of CRKL (Homo sapiens) (P46109 9-107): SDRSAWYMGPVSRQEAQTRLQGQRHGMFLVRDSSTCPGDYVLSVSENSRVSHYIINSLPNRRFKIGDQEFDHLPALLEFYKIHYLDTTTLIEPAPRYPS
Chain of ABL1 (Homo sapiens) (P00519 122-222): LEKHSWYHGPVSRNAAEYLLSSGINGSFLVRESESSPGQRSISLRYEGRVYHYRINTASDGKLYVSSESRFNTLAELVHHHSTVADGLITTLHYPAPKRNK
Chain of CRK (Homo sapiens) (P46108 8-123): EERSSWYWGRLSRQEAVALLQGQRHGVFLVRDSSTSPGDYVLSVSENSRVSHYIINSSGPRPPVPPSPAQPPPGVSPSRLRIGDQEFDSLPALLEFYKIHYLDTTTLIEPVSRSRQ
Chain of PIK3R1-NC (Homo sapiens) (P27986 328-723): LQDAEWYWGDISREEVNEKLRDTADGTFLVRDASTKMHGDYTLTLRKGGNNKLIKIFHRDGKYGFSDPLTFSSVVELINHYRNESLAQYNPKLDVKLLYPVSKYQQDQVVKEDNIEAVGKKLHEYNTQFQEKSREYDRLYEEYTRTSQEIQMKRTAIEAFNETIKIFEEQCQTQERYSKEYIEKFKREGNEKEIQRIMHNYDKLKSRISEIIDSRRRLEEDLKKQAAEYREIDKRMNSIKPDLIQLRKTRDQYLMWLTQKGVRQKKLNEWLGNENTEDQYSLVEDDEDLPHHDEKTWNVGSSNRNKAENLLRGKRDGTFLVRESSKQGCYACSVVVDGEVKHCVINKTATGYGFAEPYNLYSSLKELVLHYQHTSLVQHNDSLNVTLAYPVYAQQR
Chain of PIK3R1-N (Homo sapiens) (P27986 328-723): as above
Chain of SHC1-PTB (Homo sapiens) (P29353 483-583): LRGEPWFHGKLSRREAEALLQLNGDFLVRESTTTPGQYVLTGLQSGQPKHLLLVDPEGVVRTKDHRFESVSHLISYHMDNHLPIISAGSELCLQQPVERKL
Chain of SHC1 (Homo sapiens) (P29353 483-583): as above
Chain of TENC1 (Homo sapiens) (Q63HR2 1135-1252): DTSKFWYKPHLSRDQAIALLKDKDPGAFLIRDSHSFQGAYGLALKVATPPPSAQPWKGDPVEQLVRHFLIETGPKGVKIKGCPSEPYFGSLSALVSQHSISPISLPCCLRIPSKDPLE
Chain of SLA (Homo sapiens) (Q13239 79-180): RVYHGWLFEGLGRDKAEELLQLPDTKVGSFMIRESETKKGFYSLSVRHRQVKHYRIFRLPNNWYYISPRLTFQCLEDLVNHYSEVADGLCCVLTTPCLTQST
Chain of HCK (Homo sapiens) (P08631 139-246): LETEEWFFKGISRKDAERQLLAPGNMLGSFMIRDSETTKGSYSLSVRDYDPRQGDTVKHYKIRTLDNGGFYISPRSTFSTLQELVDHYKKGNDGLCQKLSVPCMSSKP
Chain of PIK3R2-N (Homo sapiens) (O00459 325-721): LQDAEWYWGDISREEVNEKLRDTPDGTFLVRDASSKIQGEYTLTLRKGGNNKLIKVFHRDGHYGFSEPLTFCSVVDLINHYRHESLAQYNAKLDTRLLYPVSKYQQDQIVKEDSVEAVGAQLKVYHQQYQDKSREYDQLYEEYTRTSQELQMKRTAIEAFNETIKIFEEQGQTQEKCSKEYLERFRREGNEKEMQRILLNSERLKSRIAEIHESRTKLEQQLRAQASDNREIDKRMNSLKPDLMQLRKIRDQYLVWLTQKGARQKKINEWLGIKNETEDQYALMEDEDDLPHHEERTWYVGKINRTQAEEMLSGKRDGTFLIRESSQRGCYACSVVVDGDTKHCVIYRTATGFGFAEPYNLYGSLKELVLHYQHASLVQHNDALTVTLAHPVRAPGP
Chain of PIK3R2-NC (Homo sapiens) (O00459 325-721): as above
Chain of PIK3R2-C (Homo sapiens) (O00459 325-721): as above
Chain of GRB7 (Homo sapiens) (Q14451 426-532): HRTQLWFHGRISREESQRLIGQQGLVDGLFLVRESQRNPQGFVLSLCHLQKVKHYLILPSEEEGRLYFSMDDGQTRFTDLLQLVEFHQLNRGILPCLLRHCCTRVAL
Chain of PLCG1-C (Homo sapiens) (P19174 545-761): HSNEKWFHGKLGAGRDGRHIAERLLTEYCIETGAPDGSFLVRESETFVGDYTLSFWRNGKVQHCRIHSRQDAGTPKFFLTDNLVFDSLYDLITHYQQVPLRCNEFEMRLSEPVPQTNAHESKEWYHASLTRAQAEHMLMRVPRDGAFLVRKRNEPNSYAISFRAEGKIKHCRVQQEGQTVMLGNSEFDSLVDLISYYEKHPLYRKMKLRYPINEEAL
Chain of PLCG1-NC (Homo sapiens) (P19174 545-761): as above
Chain of BLK (Homo sapiens) (P51451 119-225): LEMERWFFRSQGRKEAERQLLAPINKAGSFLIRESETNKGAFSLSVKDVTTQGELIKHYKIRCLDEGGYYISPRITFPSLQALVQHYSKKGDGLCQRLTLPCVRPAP
Chain of SHC3 (Homo sapiens) (Q92529 494-594): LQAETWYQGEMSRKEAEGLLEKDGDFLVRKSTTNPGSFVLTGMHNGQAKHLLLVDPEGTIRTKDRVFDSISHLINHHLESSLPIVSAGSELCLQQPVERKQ
Chain of VAV3 (Homo sapiens) (Q9UKW4 667-771): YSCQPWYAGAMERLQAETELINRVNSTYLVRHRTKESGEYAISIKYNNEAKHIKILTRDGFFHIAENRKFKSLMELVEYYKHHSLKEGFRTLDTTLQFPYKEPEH
Chain of PLCG2-NC (Homo sapiens) (P16885 527-740): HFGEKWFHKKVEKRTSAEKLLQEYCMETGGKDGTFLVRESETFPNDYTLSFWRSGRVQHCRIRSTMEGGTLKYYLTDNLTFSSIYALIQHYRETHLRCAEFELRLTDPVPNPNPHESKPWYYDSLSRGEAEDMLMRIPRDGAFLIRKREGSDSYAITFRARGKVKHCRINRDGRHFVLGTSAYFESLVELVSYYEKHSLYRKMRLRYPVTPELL
Chain of TXK (Homo sapiens) (P42681 145-251): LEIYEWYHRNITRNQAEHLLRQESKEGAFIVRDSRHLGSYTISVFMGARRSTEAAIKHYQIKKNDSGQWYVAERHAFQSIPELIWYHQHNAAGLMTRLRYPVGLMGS
Chain of SLA2 (Homo sapiens) (Q9H6Q3 89-196): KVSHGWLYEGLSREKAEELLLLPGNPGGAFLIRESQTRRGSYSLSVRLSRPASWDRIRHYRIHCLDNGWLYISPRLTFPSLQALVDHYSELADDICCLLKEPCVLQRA
Chain of PTK6 (Homo sapiens) (Q13882 73-175): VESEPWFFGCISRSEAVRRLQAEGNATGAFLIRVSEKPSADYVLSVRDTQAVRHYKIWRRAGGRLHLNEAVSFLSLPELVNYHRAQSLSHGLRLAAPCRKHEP
Chain of TNS3 (Homo sapiens) (Q68CZ2 1167-1287): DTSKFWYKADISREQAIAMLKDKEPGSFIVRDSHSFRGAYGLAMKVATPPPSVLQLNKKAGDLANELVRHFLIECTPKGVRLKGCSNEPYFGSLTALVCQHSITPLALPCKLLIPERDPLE
Chain of VAV1 (Homo sapiens) (P15498 666-770): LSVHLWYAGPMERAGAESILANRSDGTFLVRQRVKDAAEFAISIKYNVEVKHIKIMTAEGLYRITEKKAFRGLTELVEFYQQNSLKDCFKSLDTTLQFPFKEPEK
Chain of SH2B2 (Homo sapiens) (O14492 412-520): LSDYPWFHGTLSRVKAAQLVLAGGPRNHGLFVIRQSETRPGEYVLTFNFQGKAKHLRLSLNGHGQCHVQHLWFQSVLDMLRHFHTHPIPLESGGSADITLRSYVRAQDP
Chain of VAV2 (Homo sapiens) (P52735 668-772): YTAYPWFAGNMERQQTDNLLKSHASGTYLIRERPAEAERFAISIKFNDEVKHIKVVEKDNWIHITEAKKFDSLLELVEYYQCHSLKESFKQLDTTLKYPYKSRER

Substance: …pYSEDPTVPd
- apparent Kd (screen) (BLK (Homo sapiens)): 763 nM
- apparent Kd (screen) (PLCG2-NC (Homo sapiens)): 1060 nM

Substance: …pYAAMGACP
- apparent Kd (screen) (SYK-NC (Homo sapiens) [1]): 596 nM
- apparent Kd (screen) (GRB7 (Homo sapiens)): 979 nM
- apparent Kd (screen) (PIK3R1-N (Homo sapiens)): 528 nM
- apparent Kd (screen) (SLA (Homo sapiens)): 2000 nM
- apparent Kd (screen) (SH2B2 (Homo sapiens)): 2000 nM
- apparent Kd (screen) (ABL2 (Homo sapiens) [2]): 147 nM
- apparent Kd (screen) (CRK (Homo sapiens)): 264 nM
- apparent Kd (screen) (PLCG1-NC (Homo sapiens)): 720 nM
- apparent Kd (screen) (PIK3R3-NC (Homo sapiens) [3]): 14 nM
- apparent Kd (screen) (VAV3 (Homo sapiens)): 1540 nM
- apparent Kd (screen) (RASA1-N (Homo sapiens) [4]): 906 nM
- apparent Kd (screen) (TENC1 (Homo sapiens)): 2000 nM
- apparent Kd (screen) (VAV1 (Homo sapiens)): 2000 nM
- apparent Kd (screen) (NCK1 (Homo sapiens)): 208 nM
- apparent Kd (screen) (SLA2 (Homo sapiens)): 2000 nM
- apparent Kd (screen) (PIK3R1-NC (Homo sapiens)): 55 nM
- apparent Kd (screen) (ABL1 (Homo sapiens)): 2000 nM
- apparent Kd (screen) (SHC3 (Homo sapiens)): 636 nM
- apparent Kd (screen) (PIK3R2-C (Homo sapiens)): 926 nM
- apparent Kd (screen) (NCK2 (Homo sapiens) [5]): 550 nM
- apparent Kd (screen) (PIK3R3-N (Homo sapiens)): 499 nM
- apparent Kd (screen) (ZAP70-C (Homo sapiens)): 1440 nM
- apparent Kd (screen) (TNS3 (Homo sapiens)): 1500 nM
- apparent Kd (screen) (SHC1 (Homo sapiens)): 595 nM
- apparent Kd (screen) (SRC (Homo sapiens)): 1500 nM
- apparent Kd (screen) (PIK3R2-NC (Homo sapiens)): 78 nM
- apparent Kd (screen) (BCAR3 (Homo sapiens) [6]): 2000 nM
- apparent Kd (screen) (VAV2 (Homo sapiens)): 300 nM
- apparent Kd (screen) (CRKL (Homo sapiens) [7]): 435 nM
- apparent Kd (screen) (TXK (Homo sapiens)): 1670 nM
- apparent Kd (screen) (HCK (Homo sapiens)): 581 nM
- apparent Kd (screen) (PIK3R2-N (Homo sapiens)): 120 nM
- apparent Kd (screen) (PIK3R3-C (Homo sapiens)): 499 nM
- apparent Kd (screen) (PTK6 (Homo sapiens)): 440 nM
- apparent Kd (screen) (PLCG1-C (Homo sapiens)): 689 nM

Substance: …pYSEAKTPI
- apparent Kd (screen) (SYK-NC (Homo sapiens) [8]): 923 nM
- apparent Kd (screen) (ABL2 (Homo sapiens) [9]): 71 nM
- apparent Kd (screen) (PIK3R3-NC (Homo sapiens) [10]): 2000 nM
- apparent Kd (screen) (RASA1-N (Homo sapiens) [11]): 953 nM
- apparent Kd (screen) (NCK2 (Homo sapiens) [12]): 2000 nM
- apparent Kd (screen) (BCAR3 (Homo sapiens) [13]): 1780 nM
- apparent Kd (screen) (SHC1-PTB (Homo sapiens)): 2000 nM
- apparent Kd (screen) (CRKL (Homo sapiens) [14]): 1760 nM
